{"source": "patent US20180185450A1", "about": "(Sanofi, published 2018)", "note": "Numbered stars: 1 amine (or outer) side, 2 acyl side, 3 side chain; on linkers, the order of the positions; unused ones are H or OH. Square brackets hold non-standard residues; d marks the D form. Side chains are listed from the residue outwards. Ends that are not written are not given here. γGlu = O=C(O)[C@H](CCC(=O)[*:2])N[*:1]; x53 = not defined here; x70 = not defined here; Aib = CC(C)(N)C(=O)O", "data": [{"target": "T1, human GLP-1 receptor (human, UniProt P43220 24-463)", "test": "cell-based or functional assay", "units": {"EC50 hGLP-1R (cAMP)": "nM"}, "values": [{"binder": "HXQGTFTSDLSKQKESKAAQLFIEWLKAGGPSSGAPPPS (dSer at 2; K(γE-x70) at 14; C-terminal NH2)", "note": "[SEQ ID NO: 27]", "EC50 hGLP-1R (cAMP)": 0.0077}, {"binder": "H[Aib]QGTFTSDLSKQK([γGlu-x53])ESKAAQDFIEWLKAGGPSSGAPPPS-NH2 (reading uncertain)", "note": "[SEQ ID NO: 25]", "EC50 hGLP-1R (cAMP)": 0.0042}, {"binder": "H[Aib]QGTFTSDLSKQK([γGlu-x53])ESQAAQDFIEWLKAGGPSSGAPPPS-NH2 (reading uncertain)", "note": "[SEQ ID NO: 36]", "EC50 hGLP-1R (cAMP)": 0.0027}, {"binder": "H[Aib]QGTFTSDLSKQK([γGlu-x70])ESQAAQDFIEWLKAGGPSSGAPPPS-NH2 (reading uncertain)", "note": "[SEQ ID NO: 41]", "EC50 hGLP-1R (cAMP)": 0.0033}, {"binder": "HXQGTFTSDLSKQKEEKKAKLFIEWLKAGGPSSGAPPPS (dSer at 2; K(γE-x53) at 14; C-terminal NH2)", "note": "[SEQ ID NO: 23]", "EC50 hGLP-1R (cAMP)": 0.0056}, {"binder": "H[Aib]QGTFTSDLSKQK(x53)ESQAAQDFIEWLKAGGPSSGAPPPS-NH2 (reading uncertain)", "note": "[SEQ ID NO: 43]", "EC50 hGLP-1R (cAMP)": 0.0041}, {"binder": "H[Aib]QGTFTSDLSKQK(x53)ESKAAQDFIEWLKAGGPSSGAPPPS-NH2 (reading uncertain)", "note": "[SEQ ID NO: 33]", "EC50 hGLP-1R (cAMP)": 0.0112}, {"binder": "H[Aib]QGTFTSDLSKQK([γGlu-x53])ESQAAQEFIEWLKAGGPSSGAPPPS-NH2 (reading uncertain)", "note": "[SEQ ID NO: 38]", "EC50 hGLP-1R (cAMP)": 0.0029}, {"binder": "H[Aib]QGTFTSDLSKQK([γGlu-x53])DSKAAQDFIEWLKAGGPSSGAPPPS-NH2 (reading uncertain)", "note": "[SEQ ID NO: 31]", "EC50 hGLP-1R (cAMP)": 0.0017}, {"binder": "H[Aib]QGTFTSDLSKQK(x53)ESRRAQDFIEWLKAGGPSSGAPPPS-NH2 (reading uncertain)", "note": "[SEQ ID NO: 5]", "EC50 hGLP-1R (cAMP)": 0.011}]}, {"target": "T2, human glucagon receptor (human, UniProt P47871 26-477)", "T2 sequence (P47871 26-477)": "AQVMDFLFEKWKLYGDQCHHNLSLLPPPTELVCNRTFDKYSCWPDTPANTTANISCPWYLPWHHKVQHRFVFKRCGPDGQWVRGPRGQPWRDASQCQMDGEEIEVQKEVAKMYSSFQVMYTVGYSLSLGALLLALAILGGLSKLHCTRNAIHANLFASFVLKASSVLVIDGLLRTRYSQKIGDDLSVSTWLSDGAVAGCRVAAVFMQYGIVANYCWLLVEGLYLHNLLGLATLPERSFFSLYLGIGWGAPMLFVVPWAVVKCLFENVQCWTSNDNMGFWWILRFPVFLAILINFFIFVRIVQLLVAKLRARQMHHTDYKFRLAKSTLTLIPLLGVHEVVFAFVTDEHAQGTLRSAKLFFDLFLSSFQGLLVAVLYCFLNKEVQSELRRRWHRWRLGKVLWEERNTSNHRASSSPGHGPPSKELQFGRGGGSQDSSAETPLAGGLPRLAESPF", "test": "cell-based or functional assay", "units": {"EC50 hGlucagon-R (cAMP)": "nM"}, "values": [{"binder": "HXQGTFTSDLSKQKESKAAQLFIEWLKAGGPSSGAPPPS (dSer at 2; K(γE-x70) at 14; C-terminal NH2)", "note": "[SEQ ID NO: 27]", "EC50 hGlucagon-R (cAMP)": 0.0251}, {"binder": "H[Aib]QGTFTSDLSKQK([γGlu-x53])ESKAAQDFIEWLKAGGPSSGAPPPS-NH2 (reading uncertain)", "note": "[SEQ ID NO: 25]", "EC50 hGlucagon-R (cAMP)": 0.0406}, {"binder": "H[Aib]QGTFTSDLSKQK([γGlu-x53])ESQAAQDFIEWLKAGGPSSGAPPPS-NH2 (reading uncertain)", "note": "[SEQ ID NO: 36]", "EC50 hGlucagon-R (cAMP)": 0.0459}, {"binder": "H[Aib]QGTFTSDLSKQK([γGlu-x70])ESQAAQDFIEWLKAGGPSSGAPPPS-NH2 (reading uncertain)", "note": "[SEQ ID NO: 41]", "EC50 hGlucagon-R (cAMP)": 0.0207}, {"binder": "HXQGTFTSDLSKQKEEKKAKLFIEWLKAGGPSSGAPPPS (dSer at 2; K(γE-x53) at 14; C-terminal NH2)", "note": "[SEQ ID NO: 23]", "EC50 hGlucagon-R (cAMP)": 0.126}, {"binder": "H[Aib]QGTFTSDLSKQK(x53)ESQAAQDFIEWLKAGGPSSGAPPPS-NH2 (reading uncertain)", "note": "[SEQ ID NO: 43]", "EC50 hGlucagon-R (cAMP)": 0.443}, {"binder": "H[Aib]QGTFTSDLSKQK(x53)ESKAAQDFIEWLKAGGPSSGAPPPS-NH2 (reading uncertain)", "note": "[SEQ ID NO: 33]", "EC50 hGlucagon-R (cAMP)": 0.473}, {"binder": "H[Aib]QGTFTSDLSKQK([γGlu-x53])ESQAAQEFIEWLKAGGPSSGAPPPS-NH2 (reading uncertain)", "note": "[SEQ ID NO: 38]", "EC50 hGlucagon-R (cAMP)": 0.0531}, {"binder": "H[Aib]QGTFTSDLSKQK([γGlu-x53])DSKAAQDFIEWLKAGGPSSGAPPPS-NH2 (reading uncertain)", "note": "[SEQ ID NO: 31]", "EC50 hGlucagon-R (cAMP)": 0.0093}, {"binder": "H[Aib]QGTFTSDLSKQK(x53)ESRRAQDFIEWLKAGGPSSGAPPPS-NH2 (reading uncertain)", "note": "[SEQ ID NO: 5]", "EC50 hGlucagon-R (cAMP)": 0.109}]}, {"target": "T1, human GLP-1 receptor", "test": "cell-based or functional assay", "remark": "another data set of the same source", "units": {"EC50 hGLP-1R (cAMP)": "nM"}, "values": [{"binder": "HXQGTFTSDLSKQLDEEAARLFIEWLKAGGPSSGAPPPS (Aib at 2; C-terminal NH2)", "note": "[SEQ ID NO: 224]", "EC50 hGLP-1R (cAMP)": 0.0013}, {"binder": "HXQGTFTSDLSKQLEEEAARLFIEWLKAGGPSSGAPPPS (Aib at 2; C-terminal NH2)", "note": "[SEQ ID NO: 225]", "EC50 hGLP-1R (cAMP)": 0.0007}, {"binder": "HXQGTFTSDLSKQMDSRRAQDFIEWLKRGGPSSGAPPPS (dSer at 2; C-terminal NH2)", "note": "[SEQ ID NO: 185]", "EC50 hGLP-1R (cAMP)": 0.0757}, {"binder": "HXQGTFTSDLSKQKESRRAQDFIEWLKAGGPSSGAPPPS (dSer at 2; K(Ac) at 14; C-terminal NH2)", "note": "[SEQ ID NO: 194]", "EC50 hGLP-1R (cAMP)": 0.159}, {"binder": "HXQGTFTSDLSKQMDSRRAQDFIEWLKNGGPSSGAPPPS (Aib at 2; C-terminal NH2)", "note": "[SEQ ID NO: 182]", "EC50 hGLP-1R (cAMP)": 0.0058}, {"binder": "HXQGTFTSDLSKQMDSRRAQDFIEWLKAGGPSSGAPPPS (dSer at 2; C-terminal NH2)", "note": "[SEQ ID NO: 188]", "EC50 hGLP-1R (cAMP)": 0.0896}, {"binder": "HXQGTFTSDLSKQMESKAAQDFIEWLKAGGPSSGAPPPS (dSer at 2; C-terminal NH2)", "note": "[SEQ ID NO: 189]", "EC50 hGLP-1R (cAMP)": 0.0056}, {"binder": "HXQGTFTSDLSKQMESRRAQDFIEWLKAGGPSSGAPPPS (dSer at 2; C-terminal NH2)", "note": "[SEQ ID NO: 184]", "EC50 hGLP-1R (cAMP)": 0.0857}, {"binder": "HXQGTFTSDLSKQKDSRRAQDFIEWLKNGGPSSGAPPPS (dSer at 2; C-terminal NH2)", "note": "[SEQ ID NO: 183]", "EC50 hGLP-1R (cAMP)": 1.02}, {"binder": "HXQGTFTSDLSKQMDSRRAQDFIEWLKXGGPSSGAPPPS (dSer at 2; Aib at 28; C-terminal NH2)", "note": "[SEQ ID NO: 187]", "EC50 hGLP-1R (cAMP)": 0.152}, {"binder": "HXQGTFTSDLSKQMDSRRAQDFIEWLKKGGPSSGAPPPS (dSer at 2; C-terminal NH2)", "note": "[SEQ ID NO: 186]", "EC50 hGLP-1R (cAMP)": 0.102}, {"binder": "HXQGTFTSDLSKQMESRRAXDFIEWLKAGGPSSGAPPPS (dSer at 2; Aib at 20; C-terminal NH2)", "note": "[SEQ ID NO: 190]", "EC50 hGLP-1R (cAMP)": 0.0213}]}, {"target": "T2, human glucagon receptor", "test": "cell-based or functional assay", "remark": "another data set of the same source", "units": {"EC50 hGlucagon-R (cAMP)": "nM"}, "values": [{"binder": "HXQGTFTSDLSKQLDEEAARLFIEWLKAGGPSSGAPPPS (Aib at 2; C-terminal NH2)", "note": "[SEQ ID NO: 224]", "EC50 hGlucagon-R (cAMP)": 2.93}, {"binder": "HXQGTFTSDLSKQLEEEAARLFIEWLKAGGPSSGAPPPS (Aib at 2; C-terminal NH2)", "note": "[SEQ ID NO: 225]", "EC50 hGlucagon-R (cAMP)": 2.87}, {"binder": "HXQGTFTSDLSKQMDSRRAQDFIEWLKRGGPSSGAPPPS (dSer at 2; C-terminal NH2)", "note": "[SEQ ID NO: 185]", "EC50 hGlucagon-R (cAMP)": 0.262}, {"binder": "HXQGTFTSDLSKQKESRRAQDFIEWLKAGGPSSGAPPPS (dSer at 2; K(Ac) at 14; C-terminal NH2)", "note": "[SEQ ID NO: 194]", "EC50 hGlucagon-R (cAMP)": 1.29}, {"binder": "HXQGTFTSDLSKQMDSRRAQDFIEWLKNGGPSSGAPPPS (Aib at 2; C-terminal NH2)", "note": "[SEQ ID NO: 182]", "EC50 hGlucagon-R (cAMP)": 0.419}, {"binder": "HXQGTFTSDLSKQMDSRRAQDFIEWLKAGGPSSGAPPPS (dSer at 2; C-terminal NH2)", "note": "[SEQ ID NO: 188]", "EC50 hGlucagon-R (cAMP)": 0.186}, {"binder": "HXQGTFTSDLSKQMESKAAQDFIEWLKAGGPSSGAPPPS (dSer at 2; C-terminal NH2)", "note": "[SEQ ID NO: 189]", "EC50 hGlucagon-R (cAMP)": 1.68}, {"binder": "HXQGTFTSDLSKQMESRRAQDFIEWLKAGGPSSGAPPPS (dSer at 2; C-terminal NH2)", "note": "[SEQ ID NO: 184]", "EC50 hGlucagon-R (cAMP)": 0.991}, {"binder": "HXQGTFTSDLSKQKDSRRAQDFIEWLKNGGPSSGAPPPS (dSer at 2; C-terminal NH2)", "note": "[SEQ ID NO: 183]", "EC50 hGlucagon-R (cAMP)": 0.916}, {"binder": "HXQGTFTSDLSKQMDSRRAQDFIEWLKXGGPSSGAPPPS (dSer at 2; Aib at 28; C-terminal NH2)", "note": "[SEQ ID NO: 187]", "EC50 hGlucagon-R (cAMP)": 0.195}, {"binder": "HXQGTFTSDLSKQMDSRRAQDFIEWLKKGGPSSGAPPPS (dSer at 2; C-terminal NH2)", "note": "[SEQ ID NO: 186]", "EC50 hGlucagon-R (cAMP)": 0.59}, {"binder": "HXQGTFTSDLSKQMESRRAXDFIEWLKAGGPSSGAPPPS (dSer at 2; Aib at 20; C-terminal NH2)", "note": "[SEQ ID NO: 190]", "EC50 hGlucagon-R (cAMP)": 1.56}, {"binder": "HXQGTFTSDLSKQXDSKAAQDFIEWLKAGGPSSGAPPPS (dSer at 2; Nle at 14; C-terminal NH2)", "note": "[SEQ ID NO: 192]", "EC50 hGlucagon-R (cAMP)": 0.478}]}]}
